Assay [1] can be described thus: Surface Plasmon Resonance binding to spin-coated cellulose acetate surface (Biacore X100). Conditions: for peptide concentration at which binding response (net RU) started rising: net RU versus peptide concentration, FIG. 6. As for the experimental part:
Binding affinity of CA4 peptide and CA4 multimers were assessed by Surface Plasmon Resonance (SPR). The CA surface was prepared by spin-coating 0.75% CA solution in mixed cyclohexanone/methyl ethyl ketone (1/9 weight ratio) solvent at 2000 rpm for 1 minute twice on the Biacore bare gold sensor chip (Biacore Inc., Catalogue numberBR-1004-05; General Electric Corp., Fairfield, Conn.), followed by 80° C. annealing for 15 minutes. The CA resin used was CA-398-10 from Eastman Chemical Company (Kingsport, Tenn.), and the solution prepared was filtered with 0.2 μm PTFE membrane before use. The thickness of the spin-coated CA thin film was measured by Atomic Force Microscope (AFM) to be 26-30 nm.
Binding of each peptide to the CA surface was tested at various concentration ranges in Tris Buffered Saline (TBS, 25 mM Tris, 150 mM NaCl, pH 7.5), using Biacore X100 system. Each peptide solution sample was injected for 2 minutes at flow rate of 30 μL/minute followed by 10 minutes buffer wash. Surface regeneration and stabilization procedure was performed after each peptide solution injection as such: 90 seconds of 1% SLES (sodium laureth sulfate) solution injection and 90 seconds of 2 M NaCl solution injection at flow rate of 10 μL/minute, and 25 minutes stabilization in TBS. For the samples of each peptide at different concentrations, a new sensor chip flow cell was used.
Because a monolithic CA surface made from spin-coating on the whole sensor chip was used as ligand for peptides, no ligand-free reference cell was possible to have in these tests in order to take bulk response out as in conventional SPR protein assay using Biacore instruments. Bulk response refers to the SPR response to the refractive index difference between the sample solution and the running buffer, but not caused by sample binding to the surface. Bulk response completely disappears once sample injection is finished and buffer wash starts. So the response units (RU) remained right after injection was caused by binding and proportional to the mass of peptide bound to the surface, and was named as “net RU” in binding data. […] Typically, association and dissociation rate constant (ka and kd) can be obtained from binding kinetics curve fitting, and dissociation constant (KD). can be determined from the ratio of dissociation rate constant to association rate constant. The use of short linkers (3-6 amino acid residues) in CA4 dimer 1, CA4 dimer 2 and CA4 trimer gave 5 fold improvement on binding affinity compared to CA4 monomer. The use of long rigid linker (TonB linker) in CA4 dimer 4 gave 50 fold improvement on binding affinity compared to CA4 monomer. […] As control, the TonB linker peptide was tested in the same way.
(Surface plasmon resonance follows binding to a sensor surface in real time, without labels.)

Assay [2] in a line: Phage titer assay of phage binding to hair. Conditions: phage-displayed peptide; six gray hair strands; relative to HP2-TonB-Gray3 = 100. Further details: species or system human. On the procedure: (§1) Phage particles recovered from panning (Example 2) were used to infect E. coli 10GF′ and transformants were purified by colony isolation. Purified phagemid clones were infected with helper phage VCSM13 and phage particles were isolated. Those purified phage clones were assayed for binding to hair by two methods.
Six gray hair strands (1.5 cm long) were blocked with BSA (1 mg/mL) at room temperature (˜21° C.) for 30 min in 1.5 mL microfuge tubes, then washed twice with tris buffered saline (TBS). Phage particles were added in TBS plus 0.1% TWEEN®-20 and incubated at room temperature for 1 hour with gentle shaking. The hair was then washed 3 times with TBS plus 0.5% TWEEN®-20, and centrifuged briefly to remove excess liquid. E. coli 10GF′ (1 mL; OD600nm=0.5) was added for 15 min. Aliquots were plated on selective plates and phagemid-containing colonies were counted (Table 4)

Assay [3] in a line: Phage ELISA of phage binding to hair. Details: species or system human. Conditions: phage-displayed peptide, 1×10^11 pfu; A450; relative to HP2-TonB-Gray3 = 100. As for the experimental part: as §1
Gray hair (200 strands, 1.5 cm long per bundle were blocked with BSA (1 mg/mL) at room temperature (˜21° C.) for 30 min in 1.5 mL microfuge tubes, then washed 3 times with TBS. Phage particles (1×10^11 pfu) were added in TBS plus 0.1% TWEEN®-20 and incubated at room temperature for 1 hr with gentle shaking. The hair was then washed 5 times with TBS plus 0.5% TWEEN®-20. Hair with bound phage was incubated with HRP/Anti-M13 monoclonal conjugate (GE Healthcare Bio-Science Corp, Piscataway, N.J.) at room temperature (˜21° C.) for 1 hr with gentle shaking, then washed 6 times with TBS plus 0.5% TWEEN®-20. IMMUNOPURE® TMB substrate kit (High sensitivity, Pierce, Rockford, Ill.; a division of Thermo Scientific) was used for colorimetric assay. After 15˜20 min development with gentle shaking, the reaction was stopped, and absorbance was determined at 450 nm. The Phage titer and ELISA data were reported relative to the activity observed for the hair-binding domain HP2-TonB-Gray3. (Table 4).

[4] abbreviates: TBS pH 7.5, from binding kinetics curve fitting.

This note sets out measurements from patent publication US9278138B2, “Peptide linkers for effective multivalent peptide binding” (E. I. DU PONT DE NEMOURS AND COMPANY, priority 2008, dated 2016).

Usually Kd stands for a measure of binding affinity in units of concentration.

A value given as a limit tells only on which side of the number the result lay.

For “GPEPEPEPEPIPEPPKEAPWIEKPKPKPKPKPKPA [TonB linker, reference compound]”, the “binding affinity to CA surface (in words)” value in assay [1] (SPR) is listed as “no binding affinity”. Also, the “KD(M) from kinetics” value in assay [1] (TBS pH 7.5, ratio of kd to ka) is “undetectable”. Further, the “peptide concentration at which binding response (net RU) started rising” value in assay [1] was greater than 50 µM.

B1: HP2-(EEAAKK)4-MEA4: hair-binding domain, SEQ ID NO: 75 (peptide)
chain: PSAQSQLPDKHSGLHERAPQRYGPEEAAKKEEAAKKEEAAKKEEAAKKPAHINKTNPHQGNHHSEKTQRQGS
For the molecule B1, in assay [2], the “Phage Titer (%) relative to the activity of HP2-TonB-Gray3” value (from here on “Phage Titer (%) relative to the activity”) stood at 80%. Further, the “ELISA (%) relative to the activity of HP2-TonB-Gray3” value (“ELISA (%) relative to the activity” for short) in assay [3] was determined as 170%.

B2: MEA4-[(KP)6GG]2-MEA4: hair-binding domain, SEQ ID NO: 102 (peptide)
chain: PSHINKTNPHQGNHHSEKTQRQGPKPKPKPKPKPKPGGKPKPKPKPKPKPGGPAHINKTNPHQGNHHSEKTQRQGS
Take B2: in assay [2], the “Phage Titer (%) relative to the activity” value is 1%. Further, in assay [3], the “ELISA (%) relative to the activity” value was determined as 1%.

B3: HP2-TonB-MEA4: hair-binding domain, SEQ ID NO: 89 (peptide)
chain: PSAQSQLPDKHSGLHERAPQRYGPEPEPEPEPIPEPPKEAPVVIEKPKPKPKPKPKPPAHINKTNPHQGNHHSEKTQRQGS
With B3, in assay [2], the “Phage Titer (%) relative to the activity” value amounted to 1%. The “ELISA (%) relative to the activity” value in assay [3] is given as 1%.

B4: SDETGPQIPHRRPTWGPEPEPEPEPIPEPPKEAPVVIEKPKPKPKPKPKPPASDETGPQIPHRRPTW (peptide)
chain: SDETGPQIPHRRPTWGPEPEPEPEPIPEPPKEAPVVIEKPKPKPKPKPKPPASDETGPQIPHRRPTW
modifications: synethic cellulose acetate-binding construct
In assay [1] (setting [4]), B4 had a ka of 441.5 M⁻¹ s⁻¹ and a kd of 0.00089 s⁻¹. Besides, the dissociation constant (Kd) in assay [1] (TBS pH 7.5, ratio of kd to ka, read-out: KD(M) from kinetics) turned out to be 2e-06 M. In assay [1] (based on KD of Table 10), the “fold improvement on binding affinity compared to CA4 monomer” value is on record as 50 fold. For the same molecule, the “peptide concentration at which binding response (net RU) started rising” value in assay [1] is 5 µM.
